Data published in the supplement of paper PMC7877785.
± gives the uncertainty stated by the source.

Test: self-splicing fitness, log relative to wild type (ln ratio); higher = more splicing; Tetrahymena group I intron in knt gene, E. coli kanamycin selection, DiMSum; sequences stand for … in CUCUCU…GGAGGGAAAAGUUAUCAGGCAUGCACCUGGUAGCUAGUCUUUAAACCAAUAGAUUGCAUCGGUUUAAAAGGCAAGACCGUCAAAUUGCGGGAAAGGGGUCAACAGCCGUUCAGUACCAAGUCUCAGGGGAAACUUUGAGAUGGCCUUGCAAAGGGUAUGGUAAUAAGCUGACGGACAUGGUCCUAACCACGCAGCCAAGUCCUAAGUCAACAGAUCUUCUGUUGAUAUGGAUGCAGUUCACAGACUAAAUGUCGGUCGGGGAAGAUGUAUUCUUCUCAUAAGAUAUAGUCGGACCUCUCCUUAAUGGGAGCUAGCGGAUGAAGUGAUGCAACACUGGAGCCGCUGGGAACUAAUUUGUAUGCGAAAGUAUAUUGAUUAGUUUUGGAGUACUCGUGGUCG
Method in brief: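 Pooled colonies went to amplicon sequencing on an Illumina HiSeq 2500 after six replicate transformations. The plates were LB agar with 100 μg/mL carbenicillin, 50 μM IPTG and 0.2% rhamnose, with or without 25 μg/mL kanamycin, incubated overnight at 37°C or 30°C. The E. coli BL21(DE3) library had all eight P1ex-region intron nucleotides randomised, the intron placed in the knt kanamycin-resistance gene on pET-22b(+). DiMSum fitness is the error-weighted combination of replicate fold changes, kanamycin against none, normalised to wild type.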

Sequence	self-splicing fitness (ln) (30 °C)	self-splicing fitness (ln) (37 °C)
AAUGAGCAAUAUUACGACCC	-3.25 ± 0.32	0.0637 ± 0.21
AAUGAGCAAUAUUACGACUA	-2.47 ± 0.25	-0.177 ± 0.21
AAUGAGCAAUAUUACGAGAU	-3.92 ± 0.21	-2.23 ± 0.13
AAUGAGCAAUAUUACGAUCG	-3.6 ± 0.32	-2.59 ± 0.24
AAUGAGCAAUAUUACGAUGG	-1.98 ± 0.13	-2.1 ± 0.26
AAUGAGCAAUAUUACGCCCA	-2.56 ± 0.3	-1.75 ± 0.32
AAUGAGCAAUAUUACGCGAG	-2.49 ± 0.16	-1.46 ± 0.14
AAUGAGCAAUAUUACGCGUA	-2.4 ± 0.27	-1.62 ± 0.25
AAUGAGCAAUAUUACGCGUC	-3.02 ± 0.29	-2.25 ± 0.29
AAUGAGCAAUAUUACGCUCA	-1.91 ± 0.42	-0.648 ± 0.38
AAUGAGCAAUAUUACGGGGA	-2.54 ± 0.17	-2.22 ± 0.25
AAUGAGCAAUAUUACGGUAA	-1.61 ± 0.34	-2.24 ± 0.4
AAUGAGCAAUAUUACGGUGC	-3.37 ± 0.23	-3.03 ± 0.27
AAUGAGCAAUAUUACGGUUC	-2.91 ± 0.15	-2.48 ± 0.18
AAUGAGCAAUAUUACGUAUA	-3.43 ± 0.17	-1.93 ± 0.13
AAUGAGCAAUAUUACGUGAA	-2.17 ± 0.16	-1.8 ± 0.27
AAUGAGCAAUAUUACGUGAC	-3.08 ± 0.37	-1.25 ± 0.19
AAUGAGCAAUAUUACGUGGC	-2.82 ± 0.15	-2.7 ± 0.2
AAUGAGCAAUAUUACGUUAU	-4.01 ± 0.21	-3.73 ± 0.24
AAUUAGCAAUAUUACGAAAU	-1.2 ± 0.16	-1.09 ± 0.23
AAUUAGCAAUAUUACGACAG	-1.72 ± 0.32	-0.992 ± 0.25
AAUUAGCAAUAUUACGAGCC		-1.57 ± 0.47
AAUUAGCAAUAUUACGAGGA	-2.64 ± 0.26	-0.851 ± 0.18
AAUUAGCAAUAUUACGAGUG	-1.08 ± 0.081	-0.525 ± 0.11
